B1: Brefeldin A-inhibited guanine nucleotide-exchange protein 2 (Homo sapiens), Q9Y6D5 (parent)
chain: MQESQTKSMFVSRALEKILADKEVKRPQHSQLRRACQVALDEIKAEIEKQRLGTAAPPKANFIEADKYFLPFELACQSKSPRVVSTSLDCLQKLIAYGHITGNAPDSGAPGKRLIDRIVETICSCFQGPQTDEGVQLQIIKALLTAVTSPHIEIHEGTILQTVRTCYNIYLASKNLINQTTAKATLTQMLNVIFTRMENQVLQEARELEKPIQSKPQSPVIQAAAVSPKFVRLKHSQAQSKPTTPEKTDLTNGEHARSDSGKVSTENGDAPRERGSSLSGTDDGAQEVVKDILEDVVTSAIKEAAEKHGLTEPERVLGELECQECAIPPGVDENSQTNGIADDRQSLSSADNLESDAQGHQVAARFSHVLQKDAFLVFRSLCKLSMKPLGEGPPDPKSHELRSKVVSLQLLLSVLQNAGPVFRTHEMFINAIKQYLCVALSKNGVSSVPDVFELSLAIFLTLLSNFKMHLKMQIEVFFKEIFLNILETSTSSFEHRWMVIQTLTRICADAQCVVDIYVNYDCDLNAANIFERLVNDLSKIAQGRSGHELGMTPLQELSLRKKGLECLVSILKCMVEWSKDLYVNPNHQTSLGQERLTDQEIGDGKGLDMARRCSVTSMESTVSSGTQTTVQDDPEQFEVIKQQKEIIEHGIELFNKKPKRGIQFLQEQGMLGTSVEDIAQFLHQEERLDSTQVGDFLGDSARFNKEVMYAYVDQLDFCEKEFVSALRTFLEGFRLPGEAQKIDRLMEKFAARYIECNQGQTLFASADTAYVLAYSIIMLTTDLHSPQVKNKMTKEQYIKMNRGINDSKDLPEEYLSSIYEEIEGKKIAMKETKELTIATKSTKQNVASEKQRRLLYNLEMEQMAKTAKALMEAVSHAKAPFTSATHLDHVRPMFKLVWTPLLAAYSIGLQNCDDTEVASLCLEGIRCAIRIACIFGMQLERDAYVQALARFSLLTASSSITEMKQKNIDTIKTLITVAHTDGNYLGNSWHEILKCISQLELAQLIGTGVKTRYLSGSGREREGSLKGHTLAGEEFMGLGLGNLVSGGVDKRQMASFQESVGETSSQSVVVAVDRIFTGSTRLDGNAIVDFVRWLCAVSMDELASPHHPRMFSLQKIVEISYYNMNRIRLQWSRIWHVIGDHFNKVGCNPNEDVAIFAVDSLRQLSMKFLEKGELANFRFQKDFLRPFEHIMKKNRSPTIRDMAIRCIAQMVNSQAANIRSGWKNIFAVFHQAASDHDGNIVELAFQTTCHIVTTIFQHHFPAAIDSFQDAVKCLSEFACNAAFPDTSMEAIRLIRFCGKYVSERPRVLQEYTSDDMNVAPGDRVWVRGWFPILFELSCIINRCKLDVRTRGLTVMFEIMKSYGHTFEKHWWQDLFRIVFRIFDNMKLPEQLSEKSEWMTTTCNHALYAICDVFTQFYEALNEVLLSDVFAQLQWCVKQDNEQLARSGTNCLENLVISNGEKFSPEVWDETCNCMLDIFKTTIPHVLLTWRPVGMEEDSSEKHLDVDLDRQSLSSIDKNPSERGQSQLSNPTDDSWKGRPYANQKLFASLLIKCVVQLELIQTIDNIVFYPATSKKEDAEHMVAAQQDTLDADIHIETEDQGMYKYMSSQHLFKLLDCLQESHSFSKAFNSNYEQRTVLWRAGFKGKSKPNLLKQETSSLACCLRILFRMYVDENRRDSWEEIQQRLLTVCSEALAYFITVNSESHREAWTSLLLLLLTKTLKINDEKFKAHASMYYPYLCEIMQFDLIPELRAVLRKFFLRIGVVYKIWIPEEPSQVPAALSPVW
partner: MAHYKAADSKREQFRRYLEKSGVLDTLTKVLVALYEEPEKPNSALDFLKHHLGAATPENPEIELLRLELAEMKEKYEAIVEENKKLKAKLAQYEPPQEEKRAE

Variants of: B1
Settings: with mycbp_human MYCBP

effect of a mutation on the interaction | Variant
decreasing interaction | I292P

Reference: IntAct's records for PubMed 16866877
